Patent US20250109212A1
Residue numbers refer to the chain shown, from its start.

B1: BSI038×S-004 (bispecific antibody, human IgG2, kappa)
heavy: EEELQVIQPDKSVSVAAGESAILHCTITSLIPVGPIQWFRGAGPARELIYNQREGHFPRVTTVSETTKRENMDFSISISNITPADAGTYYCVKFRKGSPDTEFKSGAGTELSVRAKPSAPVVSGPAARATPGGGGSGGGGSEVQLVESGGGLVKPGGSLRLSCAASGFTFSNYGISWVRQAPGKGLEWVSSISSGGDNTYYPDNVKGRFTISRDNAKNSLYLQMNSLRAEDTAVYYCARAGEKAMDYWGQGTLVTVSSASTKGPSVFPLAPCSRSTSESTAALGCLVKDYFPEPVTVSWNSGALTSGVHTFPAVLQSSGLYSLSSVVTVPSSNFGTQTYTCNVDHKPSNTKVDKTVERKCCVECPPCPAPPVAGPSVFLFPPKPKDTLMISRTPEVTCVVVDVSHEDPEVQFNWYVDGVEVHNAKTKPREEQFNSTFRVVSVLTVVHQDWLNGKEYKCKVSNKGLPAPIEKTISKTKGQPREPQVYTLPPSREEMTKNQVSLTCLVKGFYPSDIAVEWESNGQPENNYKTTPPMLDSDGSFFLYSKLTVDKSRWQQGNVFSCSVMHEALHNHYTQKSLSLSPGK
light: EIVLTQSPATLSLSPGERATLSCRASQTINNNLHWYQQKPGQAPRLLIKYASQSISGIPARFSGSGSGTDFTLTISSLEPEDFAVYFCQQFSSWPLTFGGGTKVEIKRTVAAPSVFIFPPSDEQLKSGTASVVCLLNNFYPREAKVQWKVDNALQSGNSQESVTEQDSKDSTYSLSSTLTLSKADYEKHKVYACEVTHQGLSSPVTKSFNRGEC
B2: BSI038×S-005 (bispecific antibody, human IgG2, kappa)
heavy: B1 heavy with K68R, F103V
light: B1 light
B3: SIRPαV2D1M1-Fc (IgG2) (Fc fusion)
chain: EEELQVIQPDKSVSVAAGESAILHCTITSLIPVGPIQWFRGAGPARELIYNQREGHFPRVTTVSETTKRENMDFSISISNITPADAGTYYCVKFRKGSPDTEFKSGAGTELSVRAKPSAPVVSGPAARATPGGGGSGGGGSERKCCVECPPCPAPPVAGPSVFLFPPKPKDTLMISRTPEVTCVVVDVSHEDPEVQFNWYVDGVEVHNAKTKPREEQFNSTFRVVSVLTVVHQDWLNGKEYKCKVSNKGLPAPIEKTISKTKGQPREPQVYTLPPSREEMTKNQVSLTCLVKGFYPSDIAVEWESNGQPENNYKTTPPMLDSDGSFFLYSKLTVDKSRWQQGNVFSCSVMHEALHNHYTQKSLSLSPGK
B4: SIRPαV2D1M2-Fc (IgG2) (Fc fusion)
chain: B3 chain with K68R, F103V

What follows are binders tested against full length human CD47 (NCBI #NP_942088.1) on 293F-CD47 cells (human) (UniProt Q08722) (assay: cell-based blocking FACS on 293F-CD47 cells, blocked ligand biotin-labeled human CD172a-Fc, MFI).

| Binder | IC50 [nM] |
| --- | --- |
| B1 | 1.8 |
| B2 | 1.73 |
| B3 | 1.84 |
| B4 | 2.37 |
